Reference: paper doi:10.1101/2023.11.20.567910

Experiments:
[1] = molecular target: HIV-1AD8 Env variants (N332 substituted) tested against V3-glycan bnAbs
[2] = molecular target: HIV-1AD8 Env variants (N332 substituted) tested against V3-glycan bnAbs; remark: listed apart in the source

2G12 (antibody)
IC50 of neutralisation: entry of Env-pseudotyped virus into Cf2-Th/CD4+CCR5+ cells (luciferase); told of most variants here, of all AD8 variants in p-0007 [1]: > 10 mg/L

10–1074 (antibody)
IC50 of neutralisation: entry of Env-pseudotyped virus into Cf2-Th/CD4+CCR5+ cells (luciferase); told of most variants [1]: > 10 mg/L

PGT121 (antibody)
IC50 of neutralisation: entry of Env-pseudotyped virus into Cf2-Th/CD4+CCR5+ cells (luciferase) [2]: < 1 mg/L
